Source: US20240270846A1 (published 2024)
Numbering of substitutions follows the chain as printed. Names may count otherwise.

B1: GLS3000 H27dI one-arm antibody (H chain CE115HA000) (antibody, human IgG1, kappa, L234A L235A, N297A, name in Kabat numbering)
heavy: QVQLVESGGGVVQPGRSLRLSCAASGFTFSNAWMHWVRQAPGKGLEWVAQIKAKSNNYATYYAESVKGRFTISRDDSKNSLYLQMNSLKTEDTAVYYCRYVHYGAYYGVDAWGQGTTVTVSSASTKGPSVFPLAPSSKSTSGGTAALGCLVKDYFPEPVTVSWNSGALTSGVHTFPAVLQSSGLYSLSSVVTVPSSSLGTQTYICNVNHKPSNTKVDKKVEPKSCDKTHTCPPCPAPEAAGGPSVFLFPPKPKDTLMISRTPEVTCVVVDVSHEDPEVKFNWYVDGVEVHNAKTKPREEQYASTYRVVSVLTVLHQDWLNGKEYKCKVSNKALPAPIEKTISKAKGQPREPQVYTLPPSRCELTKNQVSLSCAVKGFYPSDIAVEWESNGQPENNYKTTPPVLDSDGSFFLVSKLTVDKSRWQQGNVFSCSVMHEALHNHYTQKSLSLSPDYKDDDDK
chain: EPKSSDKTHTCPPCPAPELLGGPSVFLFPPKPKDTLMISRTPEVTCVVVDVSHEDPEVKFNWYVDGVEVHNAKTKPREEQYNSTYRVVSVLTVLHQDWLNGKEYKCKVSNKALPAPIEKTISKAKGQPREPQVCTLPPSRDELTKNQVSLWCLVKGFYPSDIAVEWESNGQPENNYKTTPPVLDSDGSFFLYSKLTVDKSRWQQGNVFSCSVMHEALHNRYTQKSLSLSP
light: DIVMTQSPLSLPVTPGEPASISCRSSQSLVISNRNTYLHWYQQKPGQAPRLLIYKVSNRFSGVPDRFSGSGSGTDFTLKISRVEAEDVGVYYCGQGTQVPYTFGQGTKLEIKRTVAAPSVFIFPPSDEQLKSGTASVVCLLNNFYPREAKVQWKVDNALQSGNSQESVTEQDSKDSTYSLSSTLTLSKADYEKHKVYACEVTHQGLSSPVTKSFNRGEC
notes: one-arm antibody
B2: GLS3000 H27dL one-arm antibody (H chain CE115HA000) (antibody, human IgG1, kappa, L234A L235A, N297A, name in Kabat numbering)
heavy: B1 heavy
chain: B1 chain
light: B1 light with I31L
notes: one-arm antibody
B3: GLS3000 L27bF one-arm antibody (H chain CE115HA000) (antibody, human IgG1, kappa, L234A L235A, N297A, name in Kabat numbering)
heavy: B1 heavy
chain: B1 chain
light: B1 light with L29F, I31H
notes: one-arm antibody
B4: GLS3000 H27dW one-arm antibody (H chain CE115HA000) (antibody, human IgG1, kappa, L234A L235A, N297A, name in Kabat numbering)
heavy: B1 heavy
chain: B1 chain
light: B1 light with I31W
notes: one-arm antibody
B5: GLS3000 H27dQ one-arm antibody (H chain CE115HA000) (antibody, human IgG1, kappa, L234A L235A, N297A, name in Kabat numbering)
heavy: B1 heavy
chain: B1 chain
light: B1 light with I31Q
notes: one-arm antibody
B6: GLS3000 H34A one-arm antibody (H chain CE115HA000) (antibody, human IgG1, kappa, L234A L235A, N297A, name in Kabat numbering)
heavy: B1 heavy
chain: B1 chain
light: B1 light with I31H, H39A
notes: one-arm antibody
B7: GLS3000 N28E one-arm antibody (H chain CE115HA000) (antibody, human IgG1, kappa, L234A L235A, N297A, name in Kabat numbering)
heavy: B1 heavy
chain: B1 chain
light: B1 light with I31H, N33E
notes: one-arm antibody
B8: GLS3000 H27dP one-arm antibody (H chain CE115HA000) (antibody, human IgG1, kappa, L234A L235A, N297A, name in Kabat numbering)
heavy: B1 heavy
chain: B1 chain
light: B1 light with I31P
notes: one-arm antibody
B9: GLS3000 L27bP one-arm antibody (H chain CE115HA000) (antibody, human IgG1, kappa, L234A L235A, N297A, name in Kabat numbering)
heavy: B1 heavy
chain: B1 chain
light: B1 light with L29P, I31H
notes: one-arm antibody
B10: GLS3000 L27bY one-arm antibody (H chain CE115HA000) (antibody, human IgG1, kappa, L234A L235A, N297A, name in Kabat numbering)
heavy: B1 heavy
chain: B1 chain
light: B1 light with L29Y, I31H
notes: one-arm antibody
B11: GLS3000 L27bV one-arm antibody (H chain CE115HA000) (antibody, human IgG1, kappa, L234A L235A, N297A, name in Kabat numbering)
heavy: B1 heavy
chain: B1 chain
light: B1 light with L29V, I31H
notes: one-arm antibody
B12: GLS3000 N28A one-arm antibody (H chain CE115HA000) (antibody, human IgG1, kappa, L234A L235A, N297A, name in Kabat numbering)
heavy: B1 heavy
chain: B1 chain
light: B1 light with I31H, N33A
notes: one-arm antibody
B13: GLS3000 K50D one-arm antibody (H chain CE115HA000) (antibody, human IgG1, kappa, L234A L235A, N297A, name in Kabat numbering)
heavy: B1 heavy
chain: B1 chain
light: B1 light with I31H, K55D
notes: one-arm antibody
B14: GLS3000 L27bE one-arm antibody (H chain CE115HA000) (antibody, human IgG1, kappa, L234A L235A, N297A, name in Kabat numbering)
heavy: B1 heavy
chain: B1 chain
light: B1 light with L29E, I31H
notes: one-arm antibody
B15: GLS3000 H27dN one-arm antibody (H chain CE115HA000) (antibody, human IgG1, kappa, L234A L235A, N297A, name in Kabat numbering)
heavy: B1 heavy
chain: B1 chain
light: B1 light with I31N
notes: one-arm antibody
B16: GLS3000 L27bD one-arm antibody (H chain CE115HA000) (antibody, human IgG1, kappa, L234A L235A, N297A, name in Kabat numbering)
heavy: B1 heavy
chain: B1 chain
light: B1 light with L29D, I31H
notes: one-arm antibody
B17: GLS3000 L27bW one-arm antibody (H chain CE115HA000) (antibody, human IgG1, kappa, L234A L235A, N297A, name in Kabat numbering)
heavy: B1 heavy
chain: B1 chain
light: B1 light with L29W, I31H
notes: one-arm antibody
B18: GLS3000 L33D one-arm antibody (H chain CE115HA000) (antibody, human IgG1, kappa, L234A L235A, N297A, name in Kabat numbering)
heavy: B1 heavy
chain: B1 chain
light: B1 light with I31H, L38D
notes: one-arm antibody
B19: GLS3000 L33A one-arm antibody (H chain CE115HA000) (antibody, human IgG1, kappa, L234A L235A, N297A, name in Kabat numbering)
heavy: B1 heavy
chain: B1 chain
light: B1 light with I31H, L38A
notes: one-arm antibody
B20: GLS3000 H27dR one-arm antibody (H chain CE115HA000) (antibody, human IgG1, kappa, L234A L235A, N297A, name in Kabat numbering)
heavy: B1 heavy
chain: B1 chain
light: B1 light with I31R
notes: one-arm antibody
B21: GLS3000 H27dV one-arm antibody (H chain CE115HA000) (antibody, human IgG1, kappa, L234A L235A, N297A, name in Kabat numbering)
heavy: B1 heavy
chain: B1 chain
light: B1 light with I31V
notes: one-arm antibody
B22: GLS3000 H27dT one-arm antibody (H chain CE115HA000) (antibody, human IgG1, kappa, L234A L235A, N297A, name in Kabat numbering)
heavy: B1 heavy
chain: B1 chain
light: B1 light with I31T
notes: one-arm antibody
B23: GLS3000 L27bM one-arm antibody (H chain CE115HA000) (antibody, human IgG1, kappa, L234A L235A, N297A, name in Kabat numbering)
heavy: B1 heavy
chain: B1 chain
light: B1 light with L29M, I31H
notes: one-arm antibody
B24: GLS3000 H34D one-arm antibody (H chain CE115HA000) (antibody, human IgG1, kappa, L234A L235A, N297A, name in Kabat numbering)
heavy: B1 heavy
chain: B1 chain
light: B1 light with I31H, H39D
notes: one-arm antibody
B25: GLS3000 K50A one-arm antibody (H chain CE115HA000) (antibody, human IgG1, kappa, L234A L235A, N297A, name in Kabat numbering)
heavy: B1 heavy
chain: B1 chain
light: B1 light with I31H, K55A
notes: one-arm antibody
B26: GLS3000 L27bI one-arm antibody (H chain CE115HA000) (antibody, human IgG1, kappa, L234A L235A, N297A, name in Kabat numbering)
heavy: B1 heavy
chain: B1 chain
light: B1 light with L29I, I31H
notes: one-arm antibody
B27: GLS3000 H27dY one-arm antibody (H chain CE115HA000) (antibody, human IgG1, kappa, L234A L235A, N297A, name in Kabat numbering)
heavy: B1 heavy
chain: B1 chain
light: B1 light with I31Y
notes: one-arm antibody
B28: GLS3000 N28D one-arm antibody (H chain CE115HA000) (antibody, human IgG1, kappa, L234A L235A, N297A, name in Kabat numbering)
heavy: B1 heavy
chain: B1 chain
light: B1 light with I31H, N33D
notes: one-arm antibody
B29: GLS3000 H27dK one-arm antibody (H chain CE115HA000) (antibody, human IgG1, kappa, L234A L235A, N297A, name in Kabat numbering)
heavy: B1 heavy
chain: B1 chain
light: B1 light with I31K
notes: one-arm antibody
B30: GLS3000 H27dS one-arm antibody (H chain CE115HA000) (antibody, human IgG1, kappa, L234A L235A, N297A, name in Kabat numbering)
heavy: B1 heavy
chain: B1 chain
light: B1 light with I31S
notes: one-arm antibody
B31: GLS3000 L27bS one-arm antibody (H chain CE115HA000) (antibody, human IgG1, kappa, L234A L235A, N297A, name in Kabat numbering)
heavy: B1 heavy
chain: B1 chain
light: B1 light with L29S, I31H
notes: one-arm antibody
B32: GLS3000 H27dM one-arm antibody (H chain CE115HA000) (antibody, human IgG1, kappa, L234A L235A, N297A, name in Kabat numbering)
heavy: B1 heavy
chain: B1 chain
light: B1 light with I31M
notes: one-arm antibody

molecular target: T1, CD3 epsilon homodimer protein (UniProt P07766 23-126); assay: SPR, CD3e homodimer on chip;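 also: surface plasmon resonance at 25 degrees C, antibodies flowed as analyte over CD3 epsilon homodimer amine-coupled to a CM4 chip, running buffer HBS-EP+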
T1 construct: also called CD3 (CD3 epsilon)
T1 sequence (P07766 23-126): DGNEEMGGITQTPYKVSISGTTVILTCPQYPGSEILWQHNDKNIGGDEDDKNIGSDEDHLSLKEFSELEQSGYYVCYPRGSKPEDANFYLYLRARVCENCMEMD

Row | ratio of amounts bound (altered form / unaltered GLS3000 antibody) | Binder
1 | 0.26 | B1
2 | 0.3 | B2
3 | 0.42 | B3
4 | 0.39 | B4
5 | 0.25 | B5
6 | 1.06 | B6
7 | 0.4 | B7
8 | 0.24 | B8
9 | 0.91 | B9
10 | 0.25 | B10
11 | 1.12 | B11
12 | 0.25 | B12
13 | 0.22 | B13
14 | 0.17 | B14
15 | 0.3 | B15
16 | 0.17 | B16

Row | ratio of amounts bound (altered form / unaltered GLS3000 antibody) | Binder
17 | 0.26 | B17
18 | 0.17 | B18
19 | 0.85 | B19
20 | 0.31 | B20
21 | 0.3 | B21
22 | 0.29 | B22
23 | 0.71 | B23
24 | 0.22 | B24
25 | 0.23 | B25
26 | 1.19 | B26
27 | 0.64 | B27
28 | 0.19 | B28
29 | 0.29 | B29
30 | 0.32 | B30
31 | 0.71 | B31
32 | 0.3 | B32
